# Measurements as given in the supplement of paper PMC7877785.
# ± gives the uncertainty stated by the source.
# Test: self-splicing fitness, log relative to wild type (ln ratio); higher = more splicing; Tetrahymena group I intron in knt gene, E. coli kanamycin selection, DiMSum; sequences stand for … in CUCUCU…GGAGGGAAAAGUUAUCAGGCAUGCACCUGGUAGCUAGUCUUUAAACCAAUAGAUUGCAUCGGUUUAAAAGGCAAGACCGUCAAAUUGCGGGAAAGGGGUCAACAGCCGUUCAGUACCAAGUCUCAGGGGAAACUUUGAGAUGGCCUUGCAAAGGGUAUGGUAAUAAGCUGACGGACAUGGUCCUAACCACGCAGCCAAGUCCUAAGUCAACAGAUCUUCUGUUGAUAUGGAUGCAGUUCACAGACUAAAUGUCGGUCGGGGAAGAUGUAUUCUUCUCAUAAGAUAUAGUCGGACCUCUCCUUAAUGGGAGCUAGCGGAUGAAGUGAUGCAACACUGGAGCCGCUGGGAACUAAUUUGUAUGCGAAAGUAUAUUGAUUAGUUUUGGAGUACUCGUGGUCG
# Outline: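 Pooled colonies went to amplicon sequencing on an Illumina HiSeq 2500 after six replicate transformations. The plates were LB agar with 100 μg/mL carbenicillin, 50 μM IPTG and 0.2% rhamnose, with or without 25 μg/mL kanamycin, incubated overnight at 37°C or 30°C. The E. coli BL21(DE3) library had all eight P1ex-region intron nucleotides randomised, the intron placed in the knt kanamycin-resistance gene on pET-22b(+). DiMSum fitness is the error-weighted combination of replicate fold changes, kanamycin against none, normalised to wild type.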
Sequence,self-splicing fitness (ln) (30 °C),self-splicing fitness (ln) (37 °C)
ACUUAGCAAUAUUACGAUUU,-0.382 ± 0.07,0.252 ± 0.092
ACUUAGCAAUAUUACGCAGG,-2.19 ± 0.13,-1.79 ± 0.15
ACUUAGCAAUAUUACGCAUG,-1.76 ± 0.085,-0.581 ± 0.11
ACUUAGCAAUAUUACGCCAU,-2.99 ± 0.35,-2.52 ± 0.38
ACUUAGCAAUAUUACGCCCU,-0.568 ± 0.16,0.0637 ± 0.28
ACUUAGCAAUAUUACGCCGG,-1.08 ± 0.14,-0.478 ± 0.18
ACUUAGCAAUAUUACGCCUU,-0.353 ± 0.095,-0.14 ± 0.11
ACUUAGCAAUAUUACGCGAA,-1.74 ± 0.12,-2.14 ± 0.2
ACUUAGCAAUAUUACGCUGA,-2.63 ± 0.49,–
ACUUAGCAAUAUUACGGACA,-1.46 ± 0.14,-0.798 ± 0.14
ACUUAGCAAUAUUACGGACU,-0.341 ± 0.096,0.14 ± 0.16
ACUUAGCAAUAUUACGGCAA,-0.92 ± 0.16,-1.31 ± 0.23
ACUUAGCAAUAUUACGGCCU,-0.24 ± 0.1,0.312 ± 0.11
ACUUAGCAAUAUUACGGCUU,-0.359 ± 0.14,-0.614 ± 0.19
ACUUAGCAAUAUUACGGGGA,-1.38 ± 0.12,-1.18 ± 0.15
ACUUAGCAAUAUUACGGUGC,-3.78 ± 0.24,-1.06 ± 0.17
ACUUAGCAAUAUUACGUAGC,-2.76 ± 0.12,-1.58 ± 0.13
ACUUAGCAAUAUUACGUAUU,-2.02 ± 0.12,-2.26 ± 0.17
ACUUAGCAAUAUUACGUCGU,-1.99 ± 0.079,-1.28 ± 0.088
ACUUAGCAAUAUUACGUGCC,-0.96 ± 0.13,-1.4 ± 0.15
ACUUAGCAAUAUUACGUUGG,-1.67 ± 0.079,-1.05 ± 0.11
AGAAAGCAAUAUUACGAAUG,-2.38 ± 0.15,-2.25 ± 0.19
AGAAAGCAAUAUUACGACCA,-0.541 ± 0.11,0.144 ± 0.15
AGAAAGCAAUAUUACGAUCA,0.101 ± 0.083,0.0881 ± 0.11
AGAAAGCAAUAUUACGAUGG,-2.28 ± 0.15,-3.17 ± 0.35

Sequence,self-splicing fitness (ln) (30 °C),self-splicing fitness (ln) (37 °C)
AGAAAGCAAUAUUACGCCAA,-3.75 ± 0.17,-2.91 ± 0.069
AGAAAGCAAUAUUACGCGAC,-2.25 ± 0.15,-1.65 ± 0.18
AGAAAGCAAUAUUACGCGCC,-0.784 ± 0.11,0.139 ± 0.14
AGAAAGCAAUAUUACGCUCG,0.431 ± 0.14,0.318 ± 0.18
AGAAAGCAAUAUUACGGACG,-0.883 ± 0.085,-0.116 ± 0.13
AGAAAGCAAUAUUACGUAUU,-2.59 ± 0.13,-1.27 ± 0.14
AGAAAGCAAUAUUACGUGCG,-0.896 ± 0.092,-0.684 ± 0.11
AGAAAGCAAUAUUACGUGUA,-2.13 ± 0.1,-0.737 ± 0.094
AGAAAGCAAUAUUACGUUGC,-4 ± 0.13,-3.36 ± 0.15
AGACAGCAAUAUUACGAGAC,–,-1.59 ± 0.37
AGACAGCAAUAUUACGAGUA,-3.42 ± 0.21,-1.47 ± 0.15
AGACAGCAAUAUUACGAUGU,-3.43 ± 0.12,-0.886 ± 0.088
AGACAGCAAUAUUACGAUUC,-1.12 ± 0.08,-0.569 ± 0.11
AGACAGCAAUAUUACGCACA,-0.582 ± 0.079,-0.0964 ± 0.099
AGACAGCAAUAUUACGCACG,-2.11 ± 0.12,-0.922 ± 0.13
AGACAGCAAUAUUACGCCCC,-0.804 ± 0.24,0.31 ± 0.26
AGACAGCAAUAUUACGCCUA,-1.46 ± 0.16,-0.402 ± 0.17
AGACAGCAAUAUUACGCCUU,-2.75 ± 0.097,-0.727 ± 0.086
AGACAGCAAUAUUACGCGAC,-3.41 ± 0.44,-1.99 ± 0.21
AGACAGCAAUAUUACGCGUC,-3.19 ± 0.29,-2.08 ± 0.24
AGACAGCAAUAUUACGCUCA,-0.572 ± 0.096,0.589 ± 0.12
AGACAGCAAUAUUACGCUGU,-4.06 ± 0.29,-2.54 ± 0.21
AGACAGCAAUAUUACGGAUG,-2.81 ± 0.11,-2.38 ± 0.17
AGACAGCAAUAUUACGGGAC,-2.87 ± 0.18,-2.54 ± 0.23
AGACAGCAAUAUUACGGGGA,-3.11 ± 0.17,-1.82 ± 0.12

Sequence,self-splicing fitness (ln) (30 °C),self-splicing fitness (ln) (37 °C)
AGACAGCAAUAUUACGGGUA,-2.49 ± 0.1,-2.1 ± 0.095
AGACAGCAAUAUUACGGUCA,-0.457 ± 0.063,-0.0714 ± 0.074
AGACAGCAAUAUUACGUACC,-0.256 ± 0.11,-0.253 ± 0.14
AGACAGCAAUAUUACGUCCA,-0.173 ± 0.092,-0.591 ± 0.14
AGACAGCAAUAUUACGUCCU,-0.567 ± 0.052,-0.257 ± 0.066
AGACAGCAAUAUUACGUCGU,-2.21 ± 0.091,-1.85 ± 0.12
AGACAGCAAUAUUACGUGAC,-2.89 ± 0.15,-1.42 ± 0.13
AGAGAGCAAUAUUACGAAUC,-3.68 ± 0.47,-2.06 ± 0.37
AGAGAGCAAUAUUACGACCU,-1.59 ± 0.18,-0.651 ± 0.26
AGAGAGCAAUAUUACGACUC,-1.4 ± 0.12,-0.408 ± 0.15
AGAGAGCAAUAUUACGACUG,-2.3 ± 0.2,–
AGAGAGCAAUAUUACGAUCC,-2.71 ± 0.24,-1.5 ± 0.32
AGAGAGCAAUAUUACGAUGC,-3.3 ± 0.48,–
AGAGAGCAAUAUUACGAUUU,-1.52 ± 0.11,-0.748 ± 0.11
AGAGAGCAAUAUUACGCAGA,-1.67 ± 0.22,–
AGAGAGCAAUAUUACGCGAC,-2.11 ± 0.34,-1.87 ± 0.39
AGAGAGCAAUAUUACGCGGU,-3.79 ± 0.43,-2.17 ± 0.46
AGAGAGCAAUAUUACGCUUA,-2.39 ± 0.25,-1.32 ± 0.23
AGAGAGCAAUAUUACGGAUA,-2.48 ± 0.21,-1.24 ± 0.21
AGAGAGCAAUAUUACGGAUG,–,-1.4 ± 0.36
AGAGAGCAAUAUUACGGCAU,-2.39 ± 0.18,-1.36 ± 0.18
AGAGAGCAAUAUUACGGCGC,–,-2.13 ± 0.35
AGAGAGCAAUAUUACGGGGG,-2.78 ± 0.34,-1.7 ± 0.36
AGAGAGCAAUAUUACGGUGG,-2.76 ± 0.23,-3.44 ± 0.37
AGAGAGCAAUAUUACGUAUA,–,-1.02 ± 0.32

Sequence,self-splicing fitness (ln) (30 °C),self-splicing fitness (ln) (37 °C)
AGAGAGCAAUAUUACGUCGG,-2.92 ± 0.25,-2.2 ± 0.26
AGAGAGCAAUAUUACGUCUG,-4.03 ± 0.33,-2.38 ± 0.31
AGAGAGCAAUAUUACGUGAG,-3.12 ± 0.17,-2.9 ± 0.26
AGAGAGCAAUAUUACGUGGU,-3.49 ± 0.29,-3.6 ± 0.37
AGAGAGCAAUAUUACGUUCA,-2.39 ± 0.22,-1.81 ± 0.22
AGAUAGCAAUAUUACGAAAU,-2.87 ± 0.13,-0.838 ± 0.12
AGAUAGCAAUAUUACGACCA,-0.39 ± 0.16,1.11 ± 0.2
AGAUAGCAAUAUUACGACUG,-1.38 ± 0.2,0.221 ± 0.29
AGAUAGCAAUAUUACGAGUA,-1.76 ± 0.3,-1.33 ± 0.2
AGAUAGCAAUAUUACGAGUC,-2.64 ± 0.18,-2.14 ± 0.21
AGAUAGCAAUAUUACGAUAU,-1.02 ± 0.11,-0.119 ± 0.14
AGAUAGCAAUAUUACGAUGC,-2.02 ± 0.15,-0.736 ± 0.16
AGAUAGCAAUAUUACGCAAC,-2.05 ± 0.34,-1.39 ± 0.24
AGAUAGCAAUAUUACGCAGU,-2.55 ± 0.17,-1.49 ± 0.17
AGAUAGCAAUAUUACGCCGC,-3.03 ± 0.3,-2.04 ± 0.32
AGAUAGCAAUAUUACGCGAG,-1.22 ± 0.1,-1.03 ± 0.1
AGAUAGCAAUAUUACGGAAA,-3.51 ± 0.37,-2.34 ± 0.25
AGAUAGCAAUAUUACGGAAC,–,-0.911 ± 0.3
AGAUAGCAAUAUUACGGACC,-0.504 ± 0.15,-0.242 ± 0.12
AGAUAGCAAUAUUACGGACU,0.201 ± 0.1,-0.666 ± 0.093
AGAUAGCAAUAUUACGGGAU,-1.24 ± 0.19,-1.21 ± 0.16
AGAUAGCAAUAUUACGUAGC,-2.88 ± 0.22,-2.16 ± 0.24
AGAUAGCAAUAUUACGUUUA,-2.12 ± 0.13,-1.43 ± 0.13
